Test results taken from the supplement of paper PMC12042874.
± gives the uncertainty stated by the source.

assay: amyloid nucleation score (Sup35N fusion, yeast selection) (log enrichment); library NNK2; higher = more nucleation; inactive = no reads after selection
Outline: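 Sup35N fusions to peptides of 20 random codons were expressed in psi-negative yeast, induced 24 hours with 100 μM copper sulfate, and grown 7 days at 30°C on medium lacking adenine and uracil. Input and output plasmid inserts were sequenced by Illumina. The nucleation score is the DiMSum log enrichment of output over input reads, centred on the mode score of non-aggregating sequences. Sequences with under 100 input reads were excluded.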

Point of comparison: RFNYEP, amyloid nucleation score 0.262 ± 0.46. Against it:
- NTSMSPSQYCC — higher, 2.86 ± 0.16
- GEYINAWSLNIV — within error, -0.683 ± 0.64
- WTNVYAIVFR — higher, 4.65 ± 0.044
- TKAYNTFLRPETVRLSESTK — within error, 0.9 ± 0.18
- VRTWESIVCCI — higher, 4.14 ± 0.051
- EWLIAW — higher, 1.29 ± 0.25
- RRVTRKVVGPRNYAYEKYFW — higher, 3.28 ± 0.06
- LLVYAQLYRVWVWF — within error, -0.134 ± 0.22
- KTMANI — within error, -0.403 ± 0.37
- IAFRTSLYRD — lower, -1.39 ± 0.48
- FYCWTTSDMFVRTSSIESP — within error, 1.09 ± 0.59
- YLGLPLQDLRRVIMSEHVLV — within error, 0.779 ± 0.37
- RILTVYVPV — higher, 1.19 ± 0.39
- YYIALWVVGHMGYIDGCTSC — higher, 2.45 ± 0.1
- GVSGIEVVFYMLSKWGKHER — higher, 4.13 ± 0.054
- LLSISCV — within error, 0.512 ± 0.34
- FAWNMLS — within error, 0.285 ± 0.74
- ITWNIVGGHFS — within error, -0.412 ± 1.1
- VHYMHLSRLLKLHAEPLAFW — within error, -0.02 ± 0.55
- PRRSNTCWNSCISEMIGIRS — within error, 0.664 ± 0.51
- ILGLFSFPKMPMVDYNIWMR — within error, -0.137 ± 1.1
- VNCPRIMGSIGRLFVVYTQM — higher, 8.319 ± 0.06
- KSCFWLRDI — within error, -0.457 ± 0.28
- LCLEAWERRCI — lower, -0.588 ± 0.17
- ELRPIHIFKFFT — within error, -0.253 ± 0.4
- TDCMPMHVYGDYYLMGMSRE — lower, -0.555 ± 0.33
- VKLPITGIERLLEARQGDQW — within error, 0.757 ± 0.39
- GTMPNGCKS — within error, 0.541 ± 0.74
- NRICYRLGCLRADNDNDLSG — within error, -0.234 ± 0.26
- CRMSLRYTVPYSVQPLRGSL — within error, 0.156 ± 0.41
- NYQIHVRVIRHLMTLGISAQ — within error, 0.236 ± 0.35
- VLMINWMKVADFHEYFFICH — higher, 6.3 ± 0.066
- RERDNVMDIVGSAMRDCCQF — within error, 0.282 ± 0.25
- KTQKLLGRAWRNYGYGCCVR — within error, -0.487 ± 1.1
- DGNNVVIWLLWLSANMTGAG — higher, 1.97 ± 0.13
- SLFTTINARNATAEQCSMQT — within error, 0.502 ± 0.21
- SGDHDGHEMRILRWSMLRYG — higher, 1.56 ± 0.11
- VYFFCYSFTYEEGMAIRKSC — lower, -1 ± 0.78
- KFILCCLFPTYGREFCTSGL — higher, 8.921 ± 0.068
- QSLIDSVHVALHKLLRRYVK — within error, -0.232 ± 0.65
- STLGPLGPSGYSRRARRLLA — higher, 7.415 ± 0.06
- NSFVYGCKCYALTFLRTFLV — lower, -1.48 ± 0.62
- DINVCRVYEY — within error, -0.011 ± 1.1
- FYIGFYSPGLCVRFKFFSAR — lower, -1.85 ± 1.1
- YANVA — lower, -1.65 ± 0.75
- ILGHLYLKIKKLSFVM — within error, -0.658 ± 1
- IWRFRGRRNRAWKF — within error, -0.333 ± 0.62
- TLLYKFTDCTVMMAIRVARR — higher, 1.45 ± 0.52
- HLPVSLFYRDS — within error, 0.165 ± 0.41
- PYFCDIMNGTCRYSLYGFSM — within error, 0.37 ± 0.51
- YHCPVSW — within error, -0.254 ± 0.32
- VHNQGFLFL — within error, -0.07 ± 0.76
- FGMFGSSYYIMY — higher, 2.63 ± 0.093
- SIRIKRLSNLQSRNPVRPRV — within error, -0.578 ± 1.1
- YYLFGKF — within error, -0.509 ± 1.1
- VHVYVGQKWSGGVLSLACYK — higher, 1.09 ± 0.35
- RCEFFGVGMSREKNMGCSKC — within error, 0.875 ± 0.47
- FFIYGNSHVSVIRYWTCTLT — higher, 7.391 ± 0.049
- GSLYVLAMLSGYVAKPYKIY — within error, -0.072 ± 0.79
- STEAVMLQGVFHRSCCR — within error, 0.761 ± 0.46
- SGGLSR — within error, -0.728 ± 0.79
- TLCVAIMYMHLGYAL — within error, 0.178 ± 0.5
- KWLTAHAAYLWSETEVRMVV — within error, 0.673 ± 0.27
- FMITWGINRS — higher, 4.02 ± 0.043
- QSTSQLRLYELSR — within error, -0.206 ± 1.1
- SVANERR — higher, 5.7 ± 0.065
- SSLYHLAGHGTAGSRLTSGR — within error, 0.511 ± 0.41
- TNHFN — lower, -1.08 ± 0.61
- YGLGKTVFTTDGPGMLNGQA — within error, 1.18 ± 0.47
- PNRIFFTLFCLTKYIIPMFM — lower, -1.33 ± 0.75
- TNKKVVRYPSPLPERSYGMR — within error, 0.012 ± 0.74
- PAHVSYILSLCLINVC — higher, 4.34 ± 0.072
- RGSRNNQVWGQSFFMPQWTA — within error, -0.405 ± 0.41
- LPVVLAGS — within error, -0.191 ± 0.79
- TGFKCSLLTY — lower, -0.91 ± 0.62
- DGCDNYDSRESKTLFMRMMW — within error, 1.11 ± 0.43
- LSNCNRMLAGQGGGSRSDWR — within error, 0.907 ± 0.37
- IFNVSMSIVRSLVITCMWGL — higher, 5.321 ± 0.043
- IAVRMALGLENNKFFLIVHK — lower, -1.44 ± 0.55
- LRVHESAGSNLVVWIKIVLE — higher, 3.42 ± 0.14

With RTSCVYSHWQHNIERLLGRW the amyloid nucleation score was “inactive”.
For KVHNLMGESGIKLYYVRFAH, the amyloid nucleation score was “inactive”.
With GQLSFCGVVYDISRQEPTIF the amyloid nucleation score was “inactive”.
For FYKLNGKNWSRVKVPHSWLF, the amyloid nucleation score was “inactive”.
With YNFLWWSMKDT the amyloid nucleation score was “inactive”.
